In PMC12775124, “CUL4A-DDB1-DCAF10 is an N-recognin for N-terminally acetylated Src kinases” (Nature Communications, 2026):

Key:
[1] = test system: CUL4A-DDB1-DCAF10; assay: In vitro ubiquitination of Lyn-GFP variants by CUL4A-DDB1-DCAF10; format: biochemical, human; details: relative to Lyn^WT-GFP, NMT1/2 siRNA 72 h, mean ± s.d., n = 3
Source text: Lyn^WT-GFP was ubiquitinated by the WT E3 complex in both conditions; however, unlike in vitro ubiquitination with endogenous Lyn (Fig. 5c, d), ubiquitination increased ~6-fold under NMT1/2 siRNA conditions. This is consistent with DCAF10 being limiting and overexpressed Lyn-GFP, accumulating an acetylated fraction available for DCAF10 in vitro. Then, we performed IPs for all Nt variants under NMT1/2 siRNA conditions (Fig. 6d, h–i). […] In vitro ubiquitination assays using untreated cell lysates led to similar results (Supplementary Fig. 7h, i).
Reactions contained E1, UBCH5B (E2), ubiquitin, Mg-ATP in ligation buffer and were incubated with bead-bound substrates, followed by washing and immunoblot detection of ubiquitinated species (anti-ubiquitin), with loading controls (anti-Lyn, -Fyn, -Src or -GFP) (n = 3 independent enzymatic assays). Complete reagent lists, complex preparation, substrate IP conditions, wash buffers, and gel/blot parameters are provided in the Supplementary Methods and Tables.
357 (v/v) glycerol, 2 mM TCEP, supplemented with Protease Inhibitor Cocktail), and lysed
358 by sonication. Lysates were cleared by centrifugation at 28,000 rpm for 45 min at 4 °C […]
382 EDTA, and loaded on a gradient gel (4–15%). Ubiquitination of substrates was assessed
383 by WB using an anti-ubiquitin antibody. Equal substrate loading was evaluated by anti- […]

[2] = test system: DLD-1 Lyn KO Flp-In T-REx cells; assay: Direct ubiquitin blot of Lyn-GFP immunoprecipitates; format: cell-based, human; details: anti-GFP IP, anti-Ub blot, n = 3
Description: Fig. 6 N-terminal glycine mutation abolishes DCAF10-dependent stability and ubiquitination. a DLD-1 Flp-In T-REx cells and Lyn KO cells expressing Lyn^WT-GFP, Lyn^G2A-GFP, or Lyn^G2P-GFP were induced for 24 h with 100 ng/mL doxycycline. Cells were treated with NMT1/2 siRNA, DCAF10 siRNA, or both (or left untreated) for 72 h. Representative WBs are shown. Filled circles represent siRNA treatment, empty circles untreated. b WB quantifications of Lyn levels normalized to vinculin. Purple: untreated with NMT1/2 siRNA; blue: treated with NMT1/2 siRNA. Mean ± s.d. with individual data points are shown (n = 3 independent biological replicates). c Schematic of ubiquitination experiments. Created in BioRender. […] Lysates have been treated with NMT1/2 RNAi for 72 h. i Quantification of in vitro ubiquitination assays. Mean ± s.d. with individual data points are shown (n = 3 independent ubiquitination assays). Volcano plots of Lyn-GFP^WT binding partners: j NMT1/2 siRNA ± doxycycline (Dox); k Control ± doxycycline; l NMT1/2 siRNA vs. control both with doxycycline. The −log10 adjusted p-value (two-sided Student’s t test with permutation-based multiple-testing correction; y-axis) is plotted against the log2 fold change (x-axis). […]
We next assessed the role of the Lyn Nt-residue for ubiquitination by performing two complementary experimental set-ups (Fig. 6c). […]

B1: Lyn^G2A-GFP: Nt-mutant (G2A) Lyn-GFP (protein, UniProt P07948 2-512, looked up, variant G2A)
Tyrosine-protein kinase Lyn: ACIKSKGKDSLSDDGVDLKTQPVRNTERTIYVRDPTSNKQQRPVPESQLLPGQRFQTKDPEEQGDIVVALYPYDGIHPDDLSFKKGEKMKVLEEHGEWWKAKSLLTKKEGFIPSNYVAKLNTLETEEWFFKDITRKDAERQLLAPGNSAGAFLIRESETLKGSFSLSVRDFDPVHGDVIKHYKIRSLDNGGYYISPRITFPCISDMIKHYQKQADGLCRRLEKACISPKPQKPWDKDAWEIPRESIKLVKRLGAGQFGEVWMGYYNNSTKVAVKTLKPGTMSVQAFLEEANLMKTLQHDKLVRLYAVVTREEPIYIITEYMAKGSLLDFLKSDEGGKVLLPKLIDFSAQIAEGMAYIERKNYIHRDLRAANVLVSESLMCKIADFGLARVIEDNEYTAREGAKFPIKWTAPEAINFGCFTIKSDVWSFGILLYEIVTYGKIPYPGRTNADVMTALSQGYRMPRVENCPDELYDIMKMCWKEKAEERPTFDYLQSVLDDFYTATEGQYQQQP
modifications: GFP fusion
With B1 the “Reduction of ubiquitination by the WT complex” value [1] was ~ 82 ± 13% and the “Ubiquitination in cells (in words)” value [2] was “no detectable ubiquitination”.

B2: Lyn^G2P-GFP: Nt-mutant (G2P) Lyn-GFP (protein, UniProt P07948 2-512, looked up, variant G2P)
Tyrosine-protein kinase Lyn: PCIKSKGKDSLSDDGVDLKTQPVRNTERTIYVRDPTSNKQQRPVPESQLLPGQRFQTKDPEEQGDIVVALYPYDGIHPDDLSFKKGEKMKVLEEHGEWWKAKSLLTKKEGFIPSNYVAKLNTLETEEWFFKDITRKDAERQLLAPGNSAGAFLIRESETLKGSFSLSVRDFDPVHGDVIKHYKIRSLDNGGYYISPRITFPCISDMIKHYQKQADGLCRRLEKACISPKPQKPWDKDAWEIPRESIKLVKRLGAGQFGEVWMGYYNNSTKVAVKTLKPGTMSVQAFLEEANLMKTLQHDKLVRLYAVVTREEPIYIITEYMAKGSLLDFLKSDEGGKVLLPKLIDFSAQIAEGMAYIERKNYIHRDLRAANVLVSESLMCKIADFGLARVIEDNEYTAREGAKFPIKWTAPEAINFGCFTIKSDVWSFGILLYEIVTYGKIPYPGRTNADVMTALSQGYRMPRVENCPDELYDIMKMCWKEKAEERPTFDYLQSVLDDFYTATEGQYQQQP
modifications: C-terminal GFP fusion
B2 was tested, and the “Reduction of ubiquitination by the WT complex” value [1] was ~ 84 ± 10% and the “Ubiquitination in cells (in words)” value [2] was “no detectable ubiquitination”.
